Experimental data: patent US20240287172A1 (SCIRHOM, published 2024)

Columns and labels:
hiR2-FL-W526A-T7 = target: T1, hiR2-FL-W526A-T7 (human, UniProt Q6PJF5 1-856); test: FACS on MEF-DKO cells expressing the variant, 3 µg/ml antibody
T1 sequence: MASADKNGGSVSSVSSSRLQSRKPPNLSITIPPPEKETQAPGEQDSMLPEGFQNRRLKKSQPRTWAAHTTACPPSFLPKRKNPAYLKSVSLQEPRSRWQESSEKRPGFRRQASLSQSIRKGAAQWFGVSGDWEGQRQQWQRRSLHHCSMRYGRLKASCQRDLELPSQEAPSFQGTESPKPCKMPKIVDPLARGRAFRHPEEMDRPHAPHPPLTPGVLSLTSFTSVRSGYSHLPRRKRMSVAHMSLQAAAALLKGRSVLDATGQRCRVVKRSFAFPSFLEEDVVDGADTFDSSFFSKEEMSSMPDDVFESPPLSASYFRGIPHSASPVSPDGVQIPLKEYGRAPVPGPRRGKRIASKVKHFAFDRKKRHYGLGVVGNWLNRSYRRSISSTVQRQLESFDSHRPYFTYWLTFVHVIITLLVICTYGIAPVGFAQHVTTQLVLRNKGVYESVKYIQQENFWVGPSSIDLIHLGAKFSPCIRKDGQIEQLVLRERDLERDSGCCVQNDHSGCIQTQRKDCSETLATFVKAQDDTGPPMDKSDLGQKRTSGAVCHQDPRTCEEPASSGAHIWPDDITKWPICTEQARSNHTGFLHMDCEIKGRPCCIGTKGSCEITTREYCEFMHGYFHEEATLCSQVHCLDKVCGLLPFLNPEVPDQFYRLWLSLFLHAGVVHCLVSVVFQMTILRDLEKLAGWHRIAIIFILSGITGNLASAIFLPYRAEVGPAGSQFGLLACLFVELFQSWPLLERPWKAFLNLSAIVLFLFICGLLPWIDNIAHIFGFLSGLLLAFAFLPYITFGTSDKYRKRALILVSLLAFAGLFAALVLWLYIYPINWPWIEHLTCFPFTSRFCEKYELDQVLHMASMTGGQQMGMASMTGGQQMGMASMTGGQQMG
Protocol: (§1) To pellet cells and remove supernatants, the plates were centrifuged at 1,500 rpm and 4° C. for 3 minutes. For primary staining, cells were resuspended in 100 μl per well of either FACS buffer alone (controls) or the purified antibodies 3, 5, 16, 22, 34, 42, 43, 44, 48, and 50 of the invention at 3 μg/ml in FACS buffer and incubated on ice for 1 hour. Afterwards, plates were centrifuged at 1,500 rpm and 4° C. for 3 minutes and washed twice with 200 μl per well of FACS buffer. For secondary staining, cells were spun down and resuspended in 100 μl per well of PE-conjugated goat anti-mouse IgG F(ab′)2 detection fragment (Dianova, Germany) diluted 1:100 in FACS buffer. Protected from light, the cell suspensions were incubated on ice for 1 hour. Plates were then centrifuged at 1,500 rpm and 4° C. for 3 minutes and washed three times with 200 μl per well of FACS buffer. Finally, cells were resuspended in 150 μl per well of FACS buffer and analyzed using a BD Accuri™ C6 Plus flow cytometer (Becton Dickinson, Germany).

hiR2-FL-D535A-T7 = target: T2, hiR2-FL-D535A-T7 (human, UniProt Q6PJF5 1-856); test: as above
T2 sequence: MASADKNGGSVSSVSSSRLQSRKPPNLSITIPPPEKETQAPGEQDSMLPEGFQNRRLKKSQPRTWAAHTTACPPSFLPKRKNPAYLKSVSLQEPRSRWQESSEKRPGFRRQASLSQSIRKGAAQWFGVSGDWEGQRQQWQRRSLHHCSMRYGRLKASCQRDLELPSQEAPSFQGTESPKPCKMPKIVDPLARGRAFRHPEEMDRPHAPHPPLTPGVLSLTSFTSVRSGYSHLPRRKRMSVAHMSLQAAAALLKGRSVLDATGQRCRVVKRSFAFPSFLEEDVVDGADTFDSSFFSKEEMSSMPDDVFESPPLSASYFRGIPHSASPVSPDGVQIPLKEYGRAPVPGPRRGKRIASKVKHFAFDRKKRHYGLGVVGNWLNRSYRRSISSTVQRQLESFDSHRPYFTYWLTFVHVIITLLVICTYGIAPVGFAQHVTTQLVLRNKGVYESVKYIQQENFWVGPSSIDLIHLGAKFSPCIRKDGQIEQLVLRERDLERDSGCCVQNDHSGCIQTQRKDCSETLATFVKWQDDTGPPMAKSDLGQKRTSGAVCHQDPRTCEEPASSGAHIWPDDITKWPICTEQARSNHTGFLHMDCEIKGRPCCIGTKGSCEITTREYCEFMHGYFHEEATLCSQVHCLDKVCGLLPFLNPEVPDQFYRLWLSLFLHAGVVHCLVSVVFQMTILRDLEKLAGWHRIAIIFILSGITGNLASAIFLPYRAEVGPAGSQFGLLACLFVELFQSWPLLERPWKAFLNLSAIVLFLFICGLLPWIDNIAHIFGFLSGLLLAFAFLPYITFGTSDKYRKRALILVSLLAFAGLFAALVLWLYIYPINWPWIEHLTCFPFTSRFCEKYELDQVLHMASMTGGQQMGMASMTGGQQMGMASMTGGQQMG
Protocol: as §1

B1: antibody 34 (antibody, V domains shown)
VH: QVTLKESGPGILQPSQTLSLTCSFSGFSLSTFSLGVGWIRQSSGKGLEWLAHIWWDDEKYYNPALKSRLTISKDTSKNQVFLKIANVDAADTATYYCARAYYSKSYYALDYWGQGTSVTVSS
VL: DIQMTQSPSSLSASLGERVSLTCRASQEISGYLSWLQQKPDGTIKRLIYAASTLDSGVPKRFSGSRSGSDYSLAISSLESEDFADYYCLQYANFPFTFGSGTKLEIK
notes: mouse IgG, kappa light chain; also called clone #34; purified antibody 34
**Q.** What does the source list for B1?
**A.** loss of binding vs wild type (hiR2-FL-W526A-T7): ≥ 60%; loss of binding vs wild type (hiR2-FL-D535A-T7): ≥ 30%

B2: antibody 48 (antibody, V domains shown)
VH: QVQLQQSGTELVRPGTSVKVSCKASGYAFTNYLIEWVKQRPGQGLEWIGVINPGSGFTKYNEKFKGKATLTADKSSSTVYMHLSSLTSEDSAVYFCARGLYRAMDYWGQGTSVTVSS
VL: DIQMTQSPASQSASLGESVTITCLASQTIATWLAWYQQKPGKSPQLLIYGATTLADGVPSRFSGGGSGTKFSFKISSLQAEDFVSYYCQQLYSTPYTFGGGTKLEIK
notes: mouse IgG, kappa light chain; also called clone #48; purified antibody 48
**Q.** How did the “loss of binding vs wild type” value (hiR2-FL-W526A-T7) turn out when B2 was run?
**A.** ≥ 30%

B3: antibody 50 (antibody, V domains shown)
VH: QVQLQQSGAELVRPGASVKVSCKASGYAFSNYLIEWVKQRPGQGLEWIGVINPGSGFTKYNEKFKGKATLTADKSSSTAYMQLSSLTSEDSAVYFCARGLYRAMDYWGQGTSVTVSS
VL: DIQMTQSPASQSASLGESVTITCLASQTIGTWLAWYQQKPGKSPQLLIYAAASLADGVPSRFSGGGSGTKFSFKISSLQAEDFVNYYCQQIYSTPYTFGGGTKLEIK
notes: mouse IgG, kappa light chain; also called clone #50; purified antibody 50
**Q.** For B3, which “loss of binding vs wild type” value (hiR2-FL-W526A-T7) is on record?
**A.** ≥ 30%

B4: antibody 3 (antibody, V domains shown)
VH: QVTLKESGPGILQPSQTLSLTCSFSGFSLTTFAMGIGWVRQPSGKGLEWLAHIWWDGEKYNNPVLKSRLTISKDTSKNQVFLRIANVDTPDTATYYCARISSIYYIIDNWGQGTSVTVSS
VL: DIVLTQSPATLSVTPGHSVSLSCRASQSISNNLHWYQKKSHESPRLLIKYVSQSISGIPSRFSGSGSGTDFTLSINSVETEDFGMYFCQQSYNWPLTFGAGTKLELK
notes: mouse IgG, kappa light chain; also called clone #3; purified antibody 3
**Q.** B4 was tested. Which “loss of binding vs wild type” value (hiR2-FL-W526A-T7) did it give?
**A.** ≥ 30%

**Q.** And the “loss of binding vs wild type” value (hiR2-FL-D535A-T7)?
**A.** ≥ 60%

B5: antibody 5 (antibody, V domains shown)
VH: QVTLKESGPGILQPSQTLSLTCSFSGFSLSTFGMGVGWIRQPSGKGLEWLAHIWWDDEKYYNSALKSRLTISKATSKNQAFLKIANVDTADTATYYCARISNYGSNYWYFNVWGTGTTVTVSS
VL: QVVLTQSPALMSASPGEKVTMTCSAGSSVSCMYWYQQKPGSSPRVLIYDTSNLASGVPARFTGSGSGTSYSLTISRMEAEDAASYYCQQWNSYPLTFGAGTKLELK
notes: mouse IgG, kappa light chain; also called clone #5; purified antibody 5
**Q.** Which results are given for B5?
**A.** loss of binding vs wild type (hiR2-FL-W526A-T7): ≥ 60%; loss of binding vs wild type (hiR2-FL-D535A-T7): ≥ 60%

B6: antibody 43 (antibody, V domains shown)
VH: QVALKESGPGILQPSQTLSLTCSFSGFSLSTFGMGVGWIRQSSGKGLEWLANIWWDDDKYYNPALKSRLTISKDASKNQAFLKIANVDTADTATYYCARIGNYGSNYWYFDVWGTGTTVTVSS
VL: QIVLTQSPAIMSASPGERVTMTCSANSRISYMYWYQQKPGSSPRLLIYDTSNLASGVPVRFSGSGSGTSYSLTISRMEAEDAATYNCQQWSSYPLTFGAGTKLELK
notes: mouse IgG, kappa light chain; also called clone #43; purified antibody 43
**Q.** For B6, which “loss of binding vs wild type” value (hiR2-FL-W526A-T7) is on record?
**A.** ≥ 30%

B7: antibody 44 (antibody, V domains shown)
VH: QVTLKESGPGILQPSQTLSLTCSFSGFSLSTFGMGVGWIRQPSEKGLEWLAHIWWDDDKYYNPALKSRLTISKDTSKNQIFLKITNVDTAETATYYCSRIGNYGSNYWYFDVWGTGTTVTVSS
VL: QIVLTQSPAVMSASPGEKVTMTCTASSSVYYMYWYQQTPGSSPRLLIYDTSNLASGVPVRFSGSGSGTSYSLTISRMEAEDAATYYCQQWNTYPLTFGAGTKLELK
notes: mouse IgG, kappa light chain; also called clone #44; purified antibody 44
**Q.** Which “loss of binding vs wild type” value (hiR2-FL-W526A-T7) does the source give for B7 here?
**A.** ≥ 30%

**Q.** What about the “loss of binding vs wild type” value (hiR2-FL-D535A-T7) of the same binder?
**A.** ≥ 30%

B8: antibody 42 (antibody, V domains shown)
VH: QVTLKESGPGILQPSQTLSLTCSLSGFSLSTFGRGVGWIRQPSGKGLEWLAHIWWDDEKYYNPALKSRLTISKDTSKNQVFLRIANVDTADTATYYCARIQNYGSNYWYFDVWGTGTTVTVSS
VL: LIVLTQSPAIMSASPGEKVTMTCGATSRISYMFWYQQKPGSSPRVLIYDTSNLASGVPVRFSGSGSGTSYSLTISRVEAEDVATYYCQQWNSYPLTFGAGTKLELK
notes: mouse IgG, kappa light chain; also called clone #42; purified antibody 42
**Q.** B8 was tested. Which “loss of binding vs wild type” value (hiR2-FL-W526A-T7) did it give?
**A.** ≥ 30%

**Q.** And the “loss of binding vs wild type” value (hiR2-FL-D535A-T7)?
**A.** ≥ 30%

B9: antibody 22 (antibody, V domains shown)
VH: QVTLKESGPGILQPSQTLSLTCSFSGFSLSTFGMGVGWIRQPSGKGLEWLAHIWWDDEKYYNSALKSRLTISKATSKNQVFLKIANVDTADTATYYCARISNYGSNYWYFNVWGTGTTVTVSS
VL: QVVLTQSPALMSASPGEKVTMTCSAGSSVSYMYWYQQKPGSSPRVLIYDTSNLASGVPARFTGSGSGTSYSLTISRMEAEDAATYYCQQWNSYPLTFGAGTKLELK
notes: mouse IgG, kappa light chain; also called clone #22; purified antibody 22
**Q.** Which “loss of binding vs wild type” value (hiR2-FL-W526A-T7) does the source give for B9 here?
**A.** ≥ 30%

**Q.** What about the “loss of binding vs wild type” value (hiR2-FL-D535A-T7) of the same binder?
**A.** ≥ 30%
